The results in this text go back to patent US20150025225A1 (SHIONOGI, published 2015).

The target in assay [1] is T1, Baboon EL-C2 tag (baboon, UniProt Q9Y5X9 21-500 (human entry), limits assumed).
T1 chain: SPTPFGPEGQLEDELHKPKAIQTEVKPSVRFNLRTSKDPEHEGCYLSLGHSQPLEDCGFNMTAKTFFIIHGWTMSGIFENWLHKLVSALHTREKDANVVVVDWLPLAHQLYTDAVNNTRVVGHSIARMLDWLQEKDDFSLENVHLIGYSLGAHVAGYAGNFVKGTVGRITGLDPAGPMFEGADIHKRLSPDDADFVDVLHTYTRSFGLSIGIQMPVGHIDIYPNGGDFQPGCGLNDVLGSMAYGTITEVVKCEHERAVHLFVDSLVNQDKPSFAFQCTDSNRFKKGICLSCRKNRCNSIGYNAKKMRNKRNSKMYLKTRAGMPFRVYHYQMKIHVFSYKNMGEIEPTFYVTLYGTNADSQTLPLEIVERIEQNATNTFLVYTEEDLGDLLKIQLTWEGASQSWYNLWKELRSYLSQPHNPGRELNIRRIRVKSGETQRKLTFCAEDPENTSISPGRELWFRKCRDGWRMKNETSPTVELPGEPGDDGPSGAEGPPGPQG
Nature of the assay: cell-based or functional assay.

Assay [2] concerns the target T2, cynomolgus monkey EL-C2 tag (cynomolgus monkey, UniProt Q9Y5X9 21-500 (human entry), limits assumed).
T2 chain: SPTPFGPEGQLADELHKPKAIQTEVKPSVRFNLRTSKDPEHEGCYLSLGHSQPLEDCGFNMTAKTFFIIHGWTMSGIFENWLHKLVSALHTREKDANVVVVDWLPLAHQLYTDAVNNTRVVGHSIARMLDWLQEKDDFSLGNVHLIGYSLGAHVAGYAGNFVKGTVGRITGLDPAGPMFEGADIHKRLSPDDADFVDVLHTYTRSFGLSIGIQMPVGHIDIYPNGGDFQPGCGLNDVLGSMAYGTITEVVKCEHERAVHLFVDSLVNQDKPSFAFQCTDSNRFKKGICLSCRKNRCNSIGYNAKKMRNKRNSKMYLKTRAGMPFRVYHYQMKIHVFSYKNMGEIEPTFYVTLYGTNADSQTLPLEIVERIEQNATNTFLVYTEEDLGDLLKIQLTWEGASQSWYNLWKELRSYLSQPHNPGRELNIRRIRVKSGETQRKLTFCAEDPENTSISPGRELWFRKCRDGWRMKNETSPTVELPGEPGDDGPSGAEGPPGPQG
Nature of the assay: cell-based or functional assay.

Assay [3] addresses T3, human EL[331-459]-mouse EL-C2 tag (human/mouse chimera, UniProt Q9WVG5 21-500 (mouse entry)).
T3 chain: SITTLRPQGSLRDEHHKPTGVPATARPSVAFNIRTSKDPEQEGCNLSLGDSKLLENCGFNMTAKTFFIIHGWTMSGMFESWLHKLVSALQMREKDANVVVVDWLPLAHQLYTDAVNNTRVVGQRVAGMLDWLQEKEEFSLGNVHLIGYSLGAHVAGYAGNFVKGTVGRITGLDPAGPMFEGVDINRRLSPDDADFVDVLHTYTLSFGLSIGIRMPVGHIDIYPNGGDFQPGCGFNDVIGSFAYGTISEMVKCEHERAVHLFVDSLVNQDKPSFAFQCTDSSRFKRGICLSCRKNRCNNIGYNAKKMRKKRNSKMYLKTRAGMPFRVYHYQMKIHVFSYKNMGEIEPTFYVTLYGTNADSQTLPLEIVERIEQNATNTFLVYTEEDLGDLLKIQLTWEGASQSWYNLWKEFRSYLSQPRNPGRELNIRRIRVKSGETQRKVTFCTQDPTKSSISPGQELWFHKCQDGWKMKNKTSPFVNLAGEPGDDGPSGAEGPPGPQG
As to the kind of experiment: cell-based or functional assay.

In the next assay the target is T4, rabbit EL-C2 tag (rabbit).
T4 chain: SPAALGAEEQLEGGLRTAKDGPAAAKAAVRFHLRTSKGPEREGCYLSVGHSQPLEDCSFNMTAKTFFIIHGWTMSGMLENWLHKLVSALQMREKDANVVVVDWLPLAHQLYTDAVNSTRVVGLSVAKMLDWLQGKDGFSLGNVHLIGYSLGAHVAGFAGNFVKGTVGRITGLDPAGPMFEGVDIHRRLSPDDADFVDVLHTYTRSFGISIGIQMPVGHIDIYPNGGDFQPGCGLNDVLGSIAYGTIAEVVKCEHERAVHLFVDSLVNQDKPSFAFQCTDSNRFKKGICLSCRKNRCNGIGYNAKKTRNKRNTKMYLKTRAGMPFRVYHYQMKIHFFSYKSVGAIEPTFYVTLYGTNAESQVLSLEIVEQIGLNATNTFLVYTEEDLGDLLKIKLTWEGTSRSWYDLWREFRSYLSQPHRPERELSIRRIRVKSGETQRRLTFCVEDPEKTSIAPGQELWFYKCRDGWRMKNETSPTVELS
As to the kind of experiment: cell-based or functional assay.

Assay [4] concerns the target T5, human EL-411-459 fragment (human).
T5 construct: Used as HEK293 lysate
T5 chain: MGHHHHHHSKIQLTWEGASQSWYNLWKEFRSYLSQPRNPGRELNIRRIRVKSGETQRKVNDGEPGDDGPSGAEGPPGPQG
As to the kind of experiment: sandwich ELISA with human EL fragment lysate, as Example 10.

Assay [5] concerns the target T1, Baboon EL-C2 tag. Nature of the assay: Biacore SPR; EL heparin extract captured by anti-C2-tag antibody on CM5, antibody as analyte, bivalent fit. As to the method: (§1) The binding affinities of anti-EL antibodies were measured using Biacore. Anti-C2-tag antibody was immobilized on a sensor chip CM5 (GE HealthCare) using amine-coupling and baboon EL heparin extract or cynomolgus monkey heparin extract diluted with HBS-P (GE Healthcare) was added and EL were captured on the sensor chip. Then anti-EL antibodies diluted with HBS-P were added and the binding affinities were calculated by bivalent fitting of BIAevaluation software (FIG. 9A-G).

Assay [6] has as its target T2, cynomolgus monkey EL-C2 tag. The assay is described as above. As for the experimental part:
as §1

The target in assay [7] is T1, Baboon EL-C2 tag. As to the kind of experiment: Biacore SPR; EL captured by anti-C2-tag antibody, antibody as analyte, bivalent fit; column head prints nM, kd/ka gives M. As for the experimental part:
as §1

Assay [8] addresses T2, cynomolgus monkey EL-C2 tag. The assay is described as above. As for the experimental part:
as §1

B1: 47B2 antibody (antibody, IgG2a, V domains shown)
VH: QVALKESGPGILQPSQTLSLTCSFSGFSLSTSGMGVGWIRQPSGKGLEWLAHIWWHGNKYYSTGLKSRLTISKDTSNNQVFLKIASVDTADTATYYCARISAGYPLDYWGQGTSVTVSS
VL: DIQMTQSPSSLSASLGGKVTITCKASQDINKYIVWYQHKPGKGPRLLIHYTSTLQPGFPSRFSGSGSGRDYSLSITNLEPEDIATYYCLQYDNLLWTFGGGTKLEIK
As for B1, the “Neutralizing activity_IC50” value with Baboon EL-C2 tag [1] was 4.6 nM; in [2], 4.7 nM; in assay [3], 5.3 nM; with rabbit EL-C2 tag, 37 nM. The binding result in [4] is on record as “binds”. Besides, the koff with Baboon EL-C2 tag [5] amounted to 0.00056 s⁻¹; in assay [6], 0.00033 s⁻¹. In addition, the results for the kon (with Baboon EL-C2 tag [5]; in assay [6]) were 140000 M⁻¹ s⁻¹ and 250000 M⁻¹ s⁻¹, respectively. The values for the Kd (with Baboon EL-C2 tag [7]; in assay [8]) were 4 nM and 1.3 nM, respectively.

B2: 12B10 antibody (antibody, IgG2a, V domains shown)
VH: QVTLKESGPGILKPSQTLSLTCSFSGFSLSTSGMGVGWIRQPSGKGLEWLAHIWWNDEKYYNPSLKSQLTISKDTSRNQVFLKITSVDTADTATYYCARSYDGSPFPSWGQGTLVTVSA
VL: DIQMTQSPSSLSASLGGKVTITCKASQDINKYIAWFQHKPGKGPRLLMAYPFTLQPGIPSRFSGNGSGRDYSFSISNLEPEDIATYYCLQYDNLLWTFGGGTRLEIK
In the case of B2, the “Neutralizing activity_IC50” value in the assay with Baboon EL-C2 tag [1] is 7.1 nM; in [2], 6.2 nM; in [3], 15 nM; in the assay with rabbit EL-C2 tag it was 201 nM. Besides, the koff worked out at 0.00021 s⁻¹ in the assay with Baboon EL-C2 tag [5] and 0.00018 s⁻¹ in [6]. Moreover, the values for the kon (in the assay with Baboon EL-C2 tag [5]; in assay [6]) were 350000 M⁻¹ s⁻¹ and 880000 M⁻¹ s⁻¹, respectively. For the same molecule, the values for the Kd (with Baboon EL-C2 tag [7]; in [8]) were 0.6 nM and 0.2 nM, respectively.
